Assay results taken from US20220267441A1.
Changes are numbered by the printed parent chain.

B1: Antibody A (AbA) (antibody, V domains shown)
VH: EVQLLESGGGLVQPGGSLRLSCAASGFTFNNYWMTWVRQAPGKGLEWVSSISSSGGSIYYPDRVKGRFTISRDNSKNTLYLQMNSLRAEDTAVYYCARDERWAGAMDAWGQGTTVTVSS
VL: DIQMTQSPSSLSASVGDRVTITCKASQNINKNLDWYQQKPGKAPKLLIYETNNLQTGVPSRFSGSGSGTDFTLTISSLQPEDFATYYCYQHNSRFTFGQGTKLEIK
B2: Antibody C (AbC) (antibody, IgG1, V domains shown)
VH: EVQLVESGGGLVQPGGSLRLSCAASGFTFNNYWMTWVRQAPGKGLEWVSSISSSGGSIYYPDSVKDRFTISRDNAKNSLYLQMNSLRAEDMAVYYCARLYYYDGGGDAWGQGTLVTVSS
VL: GIQMTQSPSSLSASVGDRVTITCKASQDINKYLDWYQQKPGKAPKLLIYNTNNLHTGIPSRFSGSGSGTDYTLTISSLQPEDFATYYCLQHISRWTFGGGTKVEIK
B3: Antibody B (AbB) (antibody, IgG1, V domains shown)
VH: EVQLVESGGGLVQPGGSLRLSCAASGFTFTNFWMAWIRQAPGKGLEWVASISSSGGSIYYPDSVKDRFTISRDNSKNTLYLQMNSLRAEDTAVYYCVKFHHYSGGGDAWGQGTLVTVSS
VL: B2 VL with G1D, D28N, Y49H, N50Y, I92S
B4: Antibody 2 (Ab2) (antibody, V domains shown)
VH: EVQLVESGGGLVQPGGSLRLSCAASGFTFEAYSMNWVRQAPGKGLEWVSYISLSGATIHYADSVKGRFTISRDNAKNSLYLQMNSLRAEDTAVYYCARGGQYYYDSSDYGEVAFDIWGQGTMVTVSS
VL: DIVMTQSPLSLPVTPGEPASISCRSSQSLVSNGYNYLDWYLQKPGQSPQLLIYFGSSRASGVPDRFSGSGSGTDFTLKISRVEAEDVGVYYCMQRRRTPWSFGGGTKVEIK
B5: Antibody 3 (Ab3) (antibody, V domains shown)
VH: B4 VH with E1Q, Q13K, E30G, A31G, L53I, H59T
VL: DIVMTQSPLSLPVTPGEPASISCRSSQSLVSNGYNYLDWYLQKPGQSPQLLIYFGSSRASGVPDRFSGSGSGTDFTLKISRVEAEDVGVYYCMQRRRTPPFTFGGGTKVEIK
B6: Antibody 5 (Ab5) (antibody, V domains shown)
VH: B4 VH with D105T
VL: B4 VL with N32S
B7: Antibody 4 (Ab4) (antibody, V domains shown)
VH: B4 VH with D105T
VL: B4 VL
B8: Antibody 6 (Ab6) (antibody, V domains shown)
VH: B4 VH with D105T, M122L
VL: B4 VL with M4L, N32S
B9: Antibody 7 (Ab7) (antibody, V domains shown)
VH: B4 VH with E1Q, Q13K, E30G, A31G, L53I, H59T
VL: B5 VL with N32S

What follows are binders tested against purified cynomolgus CD45 ectodomain (cynomolgus monkey) (assay: BLI (Octet Red96), antibody on anti-human Fc sensor, 300 nM cynomolgus CD45 ectodomain, 1:1 fit).
Chain of purified cynomolgus CD45 ectodomain (cynomolgus monkey) (chain, as listed by the source limits assumed, form in doubt): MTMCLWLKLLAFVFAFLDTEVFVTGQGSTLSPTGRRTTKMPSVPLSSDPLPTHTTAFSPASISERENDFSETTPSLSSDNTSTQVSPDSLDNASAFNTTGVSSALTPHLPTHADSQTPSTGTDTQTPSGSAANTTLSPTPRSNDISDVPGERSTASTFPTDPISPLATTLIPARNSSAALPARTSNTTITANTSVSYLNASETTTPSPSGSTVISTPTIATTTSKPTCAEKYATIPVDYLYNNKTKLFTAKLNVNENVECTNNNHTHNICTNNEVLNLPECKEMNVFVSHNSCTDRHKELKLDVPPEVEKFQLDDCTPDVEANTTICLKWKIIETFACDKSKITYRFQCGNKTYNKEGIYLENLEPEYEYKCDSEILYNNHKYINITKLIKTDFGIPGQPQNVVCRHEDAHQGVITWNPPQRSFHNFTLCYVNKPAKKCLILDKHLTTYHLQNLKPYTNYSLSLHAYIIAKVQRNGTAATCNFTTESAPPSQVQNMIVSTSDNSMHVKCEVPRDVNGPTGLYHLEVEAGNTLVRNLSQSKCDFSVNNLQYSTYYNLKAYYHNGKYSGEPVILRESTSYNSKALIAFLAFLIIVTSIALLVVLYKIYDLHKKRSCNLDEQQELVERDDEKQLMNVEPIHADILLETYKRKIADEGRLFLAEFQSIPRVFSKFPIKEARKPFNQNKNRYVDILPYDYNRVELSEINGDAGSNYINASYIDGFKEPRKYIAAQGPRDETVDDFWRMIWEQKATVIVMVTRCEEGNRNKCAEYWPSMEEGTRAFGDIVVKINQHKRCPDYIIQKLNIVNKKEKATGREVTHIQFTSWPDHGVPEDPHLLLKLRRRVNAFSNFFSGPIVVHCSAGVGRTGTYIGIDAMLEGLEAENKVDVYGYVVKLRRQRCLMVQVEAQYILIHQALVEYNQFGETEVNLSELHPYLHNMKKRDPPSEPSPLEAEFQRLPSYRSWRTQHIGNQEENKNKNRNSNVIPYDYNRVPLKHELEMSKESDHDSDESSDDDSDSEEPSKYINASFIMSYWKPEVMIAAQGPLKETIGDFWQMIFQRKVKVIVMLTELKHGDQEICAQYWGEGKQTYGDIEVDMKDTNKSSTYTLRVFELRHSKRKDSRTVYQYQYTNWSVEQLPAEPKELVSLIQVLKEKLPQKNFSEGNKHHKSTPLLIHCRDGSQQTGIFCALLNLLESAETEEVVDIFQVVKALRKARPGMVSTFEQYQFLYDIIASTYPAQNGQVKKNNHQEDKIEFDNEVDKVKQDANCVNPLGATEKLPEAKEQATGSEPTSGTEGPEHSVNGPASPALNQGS

Row | Binder | Kd | koff | kon
1 | B1 | 34.1 nM | 0.000322 s⁻¹ | 9440 M⁻¹ s⁻¹
2 | B2 | 25.3 nM | 0.000282 s⁻¹ | 11100 M⁻¹ s⁻¹
3 | B3 | 51.5 nM | 0.00042 s⁻¹ | 8160 M⁻¹ s⁻¹

Each binder was assayed against purified cynomolgus CD45 ectodomain (cynomolgus monkey) (assay: BLI (Octet Red96), Table 11; the sentence does not name the species of CD45).

Row | Binder | fold improved affinity over the parent clone C
4 | B2 | > 4 fold

Each binder was assayed against purified rhesus CD45 ectodomain (rhesus macaque) (assay: BLI (Octet Red96), IgG on anti-human Fc sensor, 50 nM CD45 ectodomain, 1:1 fit).
Chain of purified rhesus CD45 ectodomain (rhesus macaque) (chain, as listed by the source limits assumed, form in doubt): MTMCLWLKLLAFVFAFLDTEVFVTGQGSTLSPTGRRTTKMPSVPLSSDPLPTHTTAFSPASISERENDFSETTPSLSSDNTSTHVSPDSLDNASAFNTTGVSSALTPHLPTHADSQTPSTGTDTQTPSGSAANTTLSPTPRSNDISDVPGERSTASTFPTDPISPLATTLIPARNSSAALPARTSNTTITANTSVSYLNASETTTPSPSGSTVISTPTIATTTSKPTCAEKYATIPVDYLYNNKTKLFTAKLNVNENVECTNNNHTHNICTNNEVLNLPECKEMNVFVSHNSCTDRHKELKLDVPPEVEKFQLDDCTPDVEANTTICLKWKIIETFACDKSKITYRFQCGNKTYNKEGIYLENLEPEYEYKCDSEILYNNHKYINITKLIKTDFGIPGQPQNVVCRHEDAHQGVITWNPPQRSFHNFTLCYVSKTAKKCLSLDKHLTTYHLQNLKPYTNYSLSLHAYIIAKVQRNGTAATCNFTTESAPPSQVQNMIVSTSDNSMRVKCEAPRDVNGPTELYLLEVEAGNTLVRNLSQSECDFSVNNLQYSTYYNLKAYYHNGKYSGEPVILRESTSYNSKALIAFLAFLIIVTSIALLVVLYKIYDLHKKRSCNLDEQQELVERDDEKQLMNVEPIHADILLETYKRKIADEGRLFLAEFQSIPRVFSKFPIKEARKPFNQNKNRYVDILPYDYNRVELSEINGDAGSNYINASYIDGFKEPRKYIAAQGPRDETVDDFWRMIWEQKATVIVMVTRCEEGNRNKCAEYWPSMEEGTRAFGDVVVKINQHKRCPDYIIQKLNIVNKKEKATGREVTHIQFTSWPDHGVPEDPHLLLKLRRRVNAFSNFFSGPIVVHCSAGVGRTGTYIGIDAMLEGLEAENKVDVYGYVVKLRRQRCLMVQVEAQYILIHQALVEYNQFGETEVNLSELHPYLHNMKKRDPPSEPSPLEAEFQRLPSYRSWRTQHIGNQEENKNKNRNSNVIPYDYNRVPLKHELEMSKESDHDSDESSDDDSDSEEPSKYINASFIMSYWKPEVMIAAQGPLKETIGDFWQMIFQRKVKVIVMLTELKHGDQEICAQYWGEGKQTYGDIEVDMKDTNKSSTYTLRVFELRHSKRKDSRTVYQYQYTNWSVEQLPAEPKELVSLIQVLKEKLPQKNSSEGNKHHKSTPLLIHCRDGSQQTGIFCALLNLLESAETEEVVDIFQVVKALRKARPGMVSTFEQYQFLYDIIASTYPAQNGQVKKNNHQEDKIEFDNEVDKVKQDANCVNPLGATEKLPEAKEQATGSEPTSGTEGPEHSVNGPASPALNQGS

Row | Binder | Kd | koff | kon
5 | B4 | 1.42 nM | 0.000192 s⁻¹ | 135000 M⁻¹ s⁻¹
6 | B5 | 1.65 nM | 0.000222 s⁻¹ | 135000 M⁻¹ s⁻¹
7 | B6 | 1.71 nM | 0.000193 s⁻¹ | 113000 M⁻¹ s⁻¹
8 | B7 | 0.867 nM | 0.000102 s⁻¹ | 118000 M⁻¹ s⁻¹
9 | B8 | 1.44 nM | 0.000175 s⁻¹ | 122000 M⁻¹ s⁻¹
10 | B9 | 4.39 nM | 0.000544 s⁻¹ | 124000 M⁻¹ s⁻¹

Each binder was assayed against purified cynomolgus CD45 ectodomain (cynomolgus monkey) in the same assay as above.

Row | Binder | Kd | koff | kon
11 | B4 | 1.08 nM | 0.000129 s⁻¹ | 119000 M⁻¹ s⁻¹
12 | B5 | 1.61 nM | 0.000192 s⁻¹ | 120000 M⁻¹ s⁻¹
13 | B6 | 1.4 nM | 0.000164 s⁻¹ | 117000 M⁻¹ s⁻¹
14 | B7 | 0.721 nM | 7.89e-05 s⁻¹ | 110000 M⁻¹ s⁻¹
15 | B8 | 1.3 nM | 0.000154 s⁻¹ | 118000 M⁻¹ s⁻¹
16 | B9 | 4.24 nM | 0.000537 s⁻¹ | 127000 M⁻¹ s⁻¹
